Results from article PMC8144298.

Biological target: CsrA-3xFLAG (Escherichia coli) (UniProt P69913)
Assay: competition
Details: competitor conc. that fully displaces labeled RrBshort (120 pM) from 200 nM CsrA; CsrA EMSA: 100 mM KCl, 10 mM MgCl2, 2 mM DTT, 7.5% glycerol, 2 ng total yeast RNA, 120 pM RNA, 10 min 37 C, 8% native PAGE in 1x TBE (pH not stated); Hfq EMSA: …

CsrA-3xFLAG (Escherichia coli), sequence (P69913 whole entry): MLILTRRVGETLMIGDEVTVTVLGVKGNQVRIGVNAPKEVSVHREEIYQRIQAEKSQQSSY

Question: CsrB was tested. Which binding signal did it give?
Answer: 3.13 nM
